The source of these data is publication doi:10.1101/089938.

The target in this test is Alanine racemase (Alr) from Streptomyces coelicolor A3(2), His6-tagged (Streptomyces coelicolor A3(2)) (UniProt O86786). The test can be described thus: SEC. (In gel filtration, larger molecules generally elute earlier.)

The substance “Alanine racemase (Alr) from Streptomyces coelicolor A3(2), His6-tagged (from UniProt O86786 1-391) (enzyme)” had a stoichiometry N of 2.

What is called stoichiometry N is the number of molecules, sites or subunits per partner or assembly.
